Measured values as given in patent US20070036810A1, “Cyclic amp response element activator proteins and uses related thereto” (priority 2003, published 2007).

Assays:
[1] = test system: Interleukin-8 promoter; experiment: IL-8 promoter luciferase reporter co-transfection assay with the CREAP gene family; format: cell-based, human; details: cotransfection, relative to empty pCMV-SPORT6 vector
From the text: The entire amino acid sequence for CREAP1 was used in a BLASTP search of a public NCBI database. Initially two public domain cDNAs (XM—117201 and FLJ00364) were identified that have significant homology to the CREAP1 coding region. The nucleotide sequence of XM—117201 was used in a BLASTN search (Altschul S. F. et al., Nucleic Acids Res. 25:3389-3402 (1997)) of a proprietary cDNA library EST database and 4 clones were identified that represent XM—117201 public sequence. All 4 clones were functionally tested upon co-transfection with the CRE-Luc and IL-8p-Luc reporters initially found to be induced by CREAP using methods similar to those disclosed above. Briefly, trypsinized HeLa cells are resuspended in complete growth media at 6×10^4 cells/ml and distributed into white 96-well plates (Costar) in the volume of 100 μl per well. Cells are left overnight in a tissue culture incubator at 37° C. and 5% CO2. pGL3B-IL-8p-Luc reporter plasmid or CRE-Luc reporter (BD Biosciences) as well as tested cDNAs are resuspended in OptiMEM I low serum media (GIBCO BRL) at 25 ng/ml. The reporter plasmids and cDNAs are then distributed into 96-well clean PCR plates (ABGene) at 4 μl/well and 3 μl/well respectively. […]
The activity of firefly and Renilla luciferase is measured using the DualGlo Luciferase Assay System (Promega) following the protocol supplied by the manufacturer. Briefly, 115 μl of freshly reconstituted luciferase reagent is added to each well of the 96-well tissue culture plates with a Multidrop 384 and, after 15 minutes incubation, luminescence is read on a LUMINOSKAN Ascent Luminometer (Thermo Labsystems) with a 400 msec integration time. Subsequently, 115 μl of Stop-and-Glo reagent is added to each well of the 96-well tissue culture and, after 15 minutes incubation, luminescence is read on a LUMINOSKAN Ascent Luminometer with a 200 msec integration time. The activity of each tested cDNA is measured as a ratio of the corresponding firefly and Renilla luciferase activities. […]

[2] = biological target: T1, ATF2-GAL4 fusion molecule (Homo sapiens, UniProt P15336); experiment: In vivo kinase assay, ATF2-GAL4 fusion in HLR cells; format: cell-based; details: 40 hours after transfection
T1 construct: host or cells: HLR cell line (5x GAL4 element-luciferase reporter)
T1 sequence (P15336 with tags, fused parts or gaps limits assumed): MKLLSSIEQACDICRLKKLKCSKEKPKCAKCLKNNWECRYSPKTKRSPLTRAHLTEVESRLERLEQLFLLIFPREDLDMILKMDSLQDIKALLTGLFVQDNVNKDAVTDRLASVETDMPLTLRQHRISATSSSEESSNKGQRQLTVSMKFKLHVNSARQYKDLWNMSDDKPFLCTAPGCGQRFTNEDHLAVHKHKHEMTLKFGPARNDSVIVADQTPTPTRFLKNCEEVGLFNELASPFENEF
Protocol: For in vivo kinase assay, activation domains of CREB or ATF2 transcription factors fused with the yeast GAL4 DNA binding domain (1-147 Amino Acids) constructs are used (Stratagene, PathDetect In Vivo Signal Transduction Pathway trans-reporting Systems). The HLR cell line that contains a 5× GAL4 DNA binding element and TATA box driving luciferase reporter is used per manufacturer's protocol (Stratagene). 10^4 HLR cells are split into each well of 96 well tissue culture plates. After 16 hours, cells are transfected with 100 ng of Creb-GAL4 or ATF2-GAL4 fusion constructs, 30 ng of Renilla luciferase control plasmid together with 100 ng of pCMVSPORT6, pCMVSPORT-CREAP1, pFC-PKA or pFC-MEKK (Stratagene) activator plasmids respectively. Transfection is done with Fugene6 reagent (Roche Molecular Biochemicals, Basel, Switzerland) according to the manufacturers manual. Forty hours after transfection, a Dual-Glo Luciferase assay (Promega) is conducted using the manufacturer's protocol.
As CREAP1 strongly activates CRE promoter transcription, we next investigated whether CREAP1 works through the CREB pathway. […]

[3] = test system: CRE-like element of IL-8 promoter (pCREL-Luc); experiment: pCREL-Luc reporter (concatamerized CRE-like site) assay; format: cell-based; details: minimal promoter carrying concatamerized CRE-like site; data not shown
From the text: The pIL-8Luc reporter was constructed by insertion of the −1491 to +43 region of the human IL-8 gene into pGL3Basic vector (Promega, Inc). PCR was used to generate a wild type minimal IL-8 promoter as well as point mutants. Mutations in AP-1, C/EBP, NF-κB were as described by Wu et al. (Wu et al. J. Biol. Chem., 272:2396-2403 (1997)). The sequence of a putative CRE-like site TGACATAA was mutated to TCGATCAA. Promoter constructs carrying 6 concatamerised copies of CRE-like response element (pCREL-Luc) or 5 copies of CRE-like element TGACACAA found in human PEPCK and CAPL promoters (pCREL2-Luc) were prepared by ligating PCR amplified sequences into pTAL-Luc (BD Biosciences). All techniques were performed using conventional methods.
In order to determine if the “CRE-like element” was directly responsive to CREAP1 or MAP3K11, the ability of both genes to activate a minimal promoter carrying concatamerized CRE-like site (pCREL-Luc) was examined. In addition, we studied the effect of PMA known inducer of AP-1.

B1: CREAP1: human CRE activating protein 1, 650 amino acids, SEQ ID NO 2; expressed from pCMVSPORT-CREAP1 (protein)
chain: MATSNNPRKFSEKIALHNQKQAEETAAFEEVMKDLSLTRAARLQLQKSQYLQLGPSRGQYYGGSLPNVNQIGSGTMDLPFQPSGFLGEALAAAPVSLTPFQSSGLDTSRTTRHHGLVDRVYRERGRLGSPHRRPLSVDKHGRQADSCPYGTMYLSPPADTSWRRTNSDSALHQSTMTPTQPESFSSGSQDVHQKRVLLLTVPGMEETTSEADKNLSKQAWDTKKTGSRPKSCEVPGINIFPSADQENTTALIPATHNTGGSLPDLTNIHFPSPLPTPLDPEEPTFPALSSSSSTGNLAANLTHLGIGGAGQGMSTPGSSPQHRPAGVSPLSLSTEARRQQASPTLSPLSPITQAVAMDALSLEQQLPYAFFTQAGSQQPPPQPQPPPPPPPASQQPPPPPPPQAPVRLPPGGPLLPSASLTRGPQPPPLAVTVPSSLPQSPPENPGQPSMGIDIASAPALQQYRTSAGSPANQSPTSPVSNQGFSPGSSPQHTSTLGSVFGDAYYEQQMAARQANALSHQLEQFNMMENAISSSSLYSPGSTLNYSQAAMMGLTGSHGSLPDSQQLGYASHSGIPNIILTVTGESPPSLSKELTSSLAGVGDVSFDSDSQFPLDELKIDPLTLDGLHMLNDPDMVLADPATEDTFRMDRL
modifications: human
[1]
  IL-8: level of expression of luciferase relative to empty vector: 175.8571
[2]
  activation of the ATF2-GAL4 fusion molecule: unable to activate
[3]
  activation of pCREL-Luc: strongly activated
